Data: patent publication US20170360949A1 (TIANJIN INSTITUTE OF INDUSTRIAL BIOTECHNOLOGY CHINESE …, published 2017)

Columns and labels:
[1] = biological target: T1, Z1Z2 (two Ig domains at the N terminus of the titin molecule) (human); assay: complex formation by mixing in urea and dialysis, then co-purification
T1 construct: also called polypeptide A
T1 chain: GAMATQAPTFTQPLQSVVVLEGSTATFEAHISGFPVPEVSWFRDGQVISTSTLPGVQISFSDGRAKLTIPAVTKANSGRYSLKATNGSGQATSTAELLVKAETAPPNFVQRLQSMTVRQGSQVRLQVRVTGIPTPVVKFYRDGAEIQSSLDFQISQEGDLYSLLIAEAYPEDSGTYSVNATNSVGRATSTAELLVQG

[2] = biological target: T2, GLZ (human); assay: SDS-PAGE and Native-PAGE of the purified complex
T2 construct: Two GLZ chains stand in the GLZ/TeN complex; End residue 260 from claim 16; also called GLP-1(8G) attached to the N terminus of Z1Z2
T2 chain: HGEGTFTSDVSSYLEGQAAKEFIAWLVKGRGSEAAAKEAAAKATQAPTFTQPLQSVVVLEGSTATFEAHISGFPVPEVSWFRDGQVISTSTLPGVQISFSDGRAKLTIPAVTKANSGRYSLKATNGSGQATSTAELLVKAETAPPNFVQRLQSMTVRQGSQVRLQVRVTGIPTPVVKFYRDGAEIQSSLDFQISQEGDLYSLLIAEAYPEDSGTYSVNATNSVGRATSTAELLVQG

[3] = biological target: T3, ZSST (human); assay: SDS-PAGE and Native-PAGE of the purified complex
T3 construct: Two ZSST chains stand in the ZSST/TeN complex; End residue 237 from claim 18; also called SST inserted into a loop of the Z1Z2 molecule
T3 chain: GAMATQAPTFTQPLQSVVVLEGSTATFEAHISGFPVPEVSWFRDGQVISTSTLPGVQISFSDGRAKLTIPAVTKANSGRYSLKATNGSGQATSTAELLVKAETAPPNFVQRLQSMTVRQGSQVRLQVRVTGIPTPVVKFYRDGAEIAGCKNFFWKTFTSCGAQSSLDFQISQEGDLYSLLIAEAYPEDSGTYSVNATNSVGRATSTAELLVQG

[4] = biological target: T1, Z1Z2 (two Ig domains at the N terminus …); assay: SDS-PAGE and Native-PAGE of the purified complex

B1: GLTe (other)
chain: HAEGTFTSDVSSYLEGQAAKEFIAWLVKGRGGGGGSGGGGSGGGGSAMATSELSSEVSEENSERREAFWAEWKDLTLSTRPEEGSSLHEEDTQRHETYHQQGQSQVLVQRSPWLMMRMGILGRGLQEYQLPYQRVLP
notes: TEV site printed as between positions 25 and 26, in conflict with GLP-1 at 25-55; claim 15 gives 25-161; also called GLP-1 (7-37) attached via (GGGGS)3 to the N terminus of TeN
binding result [1]: binds

B2: TeN (N terminus of Telethonin, Cys mutated to Ser) (other)
chain: GAMATSELSSEVSEENSERREAFWAEWKDLTLSTRPEEGSSLHEEDTQRHETYHQQGQSQVLVQRSPWLMMRMGILGRGLQEYQLPYQRVLP
notes: also called polypeptide B
binding result [2]: binds | binding result [3]: binds

B3: SSTe (other)
chain: GAMATSELSSEVSEENSEAGCKNFFWKTFTSCGGRREAFWAEWKDLTLSTRPEEGSSLHEEDTQRHETYHQQGQSQVLVQRSPWLMMRMGILGRGLQEYQLPYQRVLP
notes: claim 17 gives 25-132; also called SST inserted into the Loop (LT1) of a TeN mutant
binding result [4]: binds
